Results on 16 sequences are retold here after the DeepSol protein solubility set.

A short description of this data set: soluble on expression in E. coli; label from the status in PepcDB or PDB records.
As to “MGSDKIHHHHHHMATVLIVGRPNVGKSTLFNKLVKKKKAIVEDEEGVTRDPVQDTVEWYGKTFKLVDTCGVFDNPQDIISQKMKEVTLNMIREADLVLFVVDGKRGITKEDESLADFLRKSTVDTILVANKAENLREFEREVKPELYSLGFGEPIPVSAEHNINLDTLLETIIKKLEEKGLDLESKPEITDAIKVAIVGRPNVGKSTLFNAILNKERALVSPIPGTTRDPVDDEVFIDGRKYVFVDTAGLRRKSRVEPRTVEKYSNYRVVDSIEKADVVVIVLDATQGITRQDQRIAGLVERRGRASVVVFNKWDLVEHREKRYDEFTKLFREKLYFIDYSPLIFTSADKGWNIDRVIDAINLAYASYTTKVPSSAINSALQKVLAFTNLPRGLKIFFGLQVDIKPPTFLFFVNSIEKVKNPQKIFLRKLIRDYVFPFEGSPIFLKFKRSR”, the “soluble on expression in E. coli” value is “not soluble”.
As to “SMKYKLNVLLAEIALIGTGNHYHEEANCIAEWLHLKGEEEAVQLIRLSSLMNRGDYASALQQGNKLAYPDLEPWLALCEYRLGLGSALESRLNRLARSQDPRIQTFVNGMREQLKT”, the “soluble on expression in E. coli” value is “soluble”.
For the sequence “GGQFIAFLRNITERKRAEALHRMGQDILLALNENEDMKEAIQRVLGLLRSATGVDAVGIRLQDGDDFPYFYQEGFPPDFLQKEDSIVARNKDGGVCRDSCGNVCLECTCGMVISGSTDHANPLFTPGGSAWTNDSFPYLEVPADQDPRTTPRDECIHQGYASIALIPIRAKGRIVGLLQLNDRRKGRFTREGIEALEDIAKNIGEAMLRKQAEEKLVASERFLRMLTNQLPGMVGYWDRD”, the “soluble on expression in E. coli” value is reported as “not soluble”.
To “PSHSGAAIFEKVSGIIAINEDVSPAELTWRSTDGDKVHTVVLSTIDKLQATPASSEKMMLRLIGKVDESKKRKDNEGNEVVPKPQRHMFSFNNRTVMDNIKMTLQQIISRYKDAD” belongs “soluble”.
To “SGRPLEGQPLRALDLYPEPAFLRSGKDPKSSPASSPSFAVLGPEVRSTGGQAGSRRRPSAPCSQDRAAAEGAPALLGGSPSSGSPGHPPGSAFGVEAGCRALNVSEHARGGFALGLPFGLSGGAYLFLLLDGAGDPKPTPEAPISSADGRAWFPSESSWQLPQLPAGSTSGSEPRARPGLGPRQLPTGPRDGAAGQGPGRGLTARLGREREIDCGPRQAGHGGTATDTGRAGSGARHRPPRDRGTPGLRTH” belongs “soluble”; to “AIIVKKTTEIEQTHKDYDPYQILGLDQGADEKAIKKAWRDMSKIHHPDRGGDAQFFDKIAKAHQALTDKEARENWEKYGNPDGPTATTFGIALPKWLVSKEYGL”, “not soluble”.
For “SYYHHHHHHDYDIPTTENLYFQGAMGSFGSKDAAADGKPLVVTTIGMIADAVKNIAQGDVHLKGLMGPGVDPHLYTATAGDVEWLGNADLILYNGLHLETKMGEVFSKLRGSRLVVAVSETIPVSQRLSLEEAEFDPHVWFDVKLWSYSVKAVYESLCKLLPGKTREFTQRYQAYQQQLDKLDAYVRRKAQSLPAERRVLVTAHDAFGYFSRAYGFEVKGLQGVSTASEASAHDMQELAAFIAQRKLPAIFIESSIPHKNVEALRDAVQARGHVVQIGGELFSDAMGDAGTSEGTYVGMVTHNIDTIVAALAR” the value was “soluble”; for “MIGVTSCISGDGKSFCSHNLARIYAISGKKTLLIRGDMRKAFNAPANLIPQGSMGLSQHLIGMATIDQIIHKGEIENLYQIIPGPVPPNASELVASQKMEEFIRIMKDKFEVVIMDSPPVGLVSDYMSVIKHIDANLYIVRYDYTPKETLEAIKDLKNKYPAQSHSIIFN”, “not soluble”; for “MSLHFLYYCSEPTLDVKIAFCQGFDKQVDVSYIAKHYNMSKSKVDNQFYSVEVGDSTFTVLKRYQNLKPIGSGAQGIVCAAYDAVLDRNVAIKKLSRPFQNQTHAKRAYRELVLMKCVNHKNIISLLNVFTPQKTLEEFQDVYLVMELMDANLCQVIQMELDHERMSYLLYQMLCGIKHLHSAGIIHRDLKPSNIVVKSDCTLKILDFGLARTAGTSFMMTPYVVTRYYRAPEVILGMGYKENVDIWSVGCIMGEMVRHKILFPGRDYIDQWNKVIEQLGTPCPEFMKKLQPTVRNYVENRPKYAGLTFPKLFPDSLFPADSEHNKLKASQARDLLSKMLVIDPAKRISVDDALQHPYINVWYDPAEVEAPPPQIYDKQLDEREHTIEEWKELIYKEVMNSEEKTKNGVVKGQPSPSGAAVNS”, “soluble”.
Turning to “MGHHHHHHSHRKRPLLAPLCNGLINSYEDKSNDFVCPICFDMIEEAYMTKCGHSFCYKCIHQSLEDNNRCPKCNYVVDNIDHLYPNFLVNELILKQKQRFEEKRFKLDHSVSSTNGHRWQIFQDWLGTDQDNLDLANVNLMLELLVQKKKQLEAESHAAQLQILMEFLKVARRNKREQLEQIQKELSVLEEDIKRVEEMSGLYSPVSED”, the “soluble on expression in E. coli” value is recorded as “not soluble”.
To “GMSVVDPSLIERIIRDDVRAMGAYHVPDSHGLVKLDAMENPYRLPPALRSELAARLGEVALNRYPVPSSEALRAKLKEVMQVPAGMEVLLGNGSDEIISMLALAAARPGAKVMAPVPGFVMYAMSAQFAGLEFVGVPLRADFTLDRGAMLAAMAEHQPAIVYLAYPNNPTGNLFDAADMEAIVRAAQGSVCRSLVVVDEAYQPFAQESWMSRLTDFGNLLVMRTVSKLGLAGIRLGYVAGDPQWLEQLDKVRPPYNVNVLTEATALFALEHVAVLDEQAAQLRAERSRVAEGMAAHGGVTVFPSAANFLLARVPDAAQTFDRLLARKVLIKNVSKMHPLLANCLRVTVSTPEENAQFLEAFAASLQD” belongs “soluble”; to “MVQHLTAEEIIQYISDAKKSTPIKVYLNGNFEGITYPESFKVFGSEQSKVIFCEADDWKPFYEAYGSQFEDIEIEMDRRNSAIPLKDLTNTNARIEPGAFIREQAIIEDGAVVMMGATINIGAVVGEGTMIDMNATLGGRATTGKNVHVGAGAVLAGVIEPPSASPVIIEDDVLIGANAVILEGVRVGKGAIVAAGAIVTQDVPAGAVVAGTPAKVIKQASEVQDTKKEIVAALRKLND”, “not soluble”.
To “MGSDKIHHHHHHLCRRLDGLNPNQQALCAENPFSIPFVARGVREAIRECENKFKFERWNCSSRDEVTETRHGKFQDILGKTLRSANKEAAFLNAIMAASIVHSITKGCNTGNLTECGCDSKPGMQRYQAESDPSMSRDQFSWGGCSDNVPHGIRYAKKFLDDWETAQFDKTKNVAHLVRRHNNFVGREAIAQNIRRQCRCHGVSGSCEFKTCWLQMQKFSQVSDLLKKRYDHFAVQVTRKATKRLRRKERTERKIPLRGNEMAYVHRSPSYCEKNLTAGILGTSGRECIHNSYSSESCDLLCCGRGYNTRLEIRQTQCECKFVWCCEVKCKTCTEEVAVHTCK” belongs “not soluble”; to “MTAVTAGKLIGVGVGPGDPELLTVKAVKAIKSADVIVFHAKPNGQSAAHRIAESYIRQDQVLELLEYPVTTGVTEHPGGYAGAMAAFYASVGERLRDHLIEGKNVVVLALGDPMLYSSYQHIHRLLSEDFNAEIIPGIPSITSAADVLGKPLCEDDDVLTILPGTLPHSELVARLSDSDGAVVMKLGRTFDKVRKAMIEAGVADRAHVVVRVGMADQHSVPVMEADPQAIPYFSVAVVPSITDTNGDSGDKQQGEVVVVGLGPGGHRWTTPEVMAELKQATDIVGYSTYVNRVPQQAGQRRHLSDNKVEAERAAMALDMAKQGRKVAVVSSGDPGVFAMAAAVLETADDDQWREVPVRIIPGMTAAQAVASRVGAPLGHDFGMISLSNRLKPFEIVEKRIRALASADMAFACYNPASKERRWQVARMKEIVSEYQAGSTPVIVARAVGSDQETVTVTTLEDFDPDIVDMRTMVIIGASTTKTYQGGDGVRVFTSRWYT”, “not soluble”; to “GMQTINATEIRNNFSYYIDTVVRDKPIAVKRNRDVLLFFSEQIIKDLLQDLKIHAELSKEDGIIIGTIDGFDLVVSGESEQEVIQKLAEDLLEYAQDYMNDFKLFYNAPNRKTHYPYILKVLLSSNIDEVKGYIYAEMV”, “soluble”.
To “MNQAFKALADPTRRKILDLLKEGDLTAGEIAEHFNMTKPSISHHLNALKNAELIQDEKKGQFVMYSLNTTVFQDLLTWVFTFTNKGEEGK” belongs “not soluble”.
